Experimental data from patent publication US10344077.
Values belong to the substance of their own block, whether it stands above or below them.

What was measured:
SSB [1] = target: SSB (UniProt P05455); experiment: AtheNA, Ab 50 ug/ml
Jo-1 [2] = target: T1, Jo-1 (UniProt P12081); experiment: AtheNA, Ab 50 ug/ml
T1 sequence (looked up): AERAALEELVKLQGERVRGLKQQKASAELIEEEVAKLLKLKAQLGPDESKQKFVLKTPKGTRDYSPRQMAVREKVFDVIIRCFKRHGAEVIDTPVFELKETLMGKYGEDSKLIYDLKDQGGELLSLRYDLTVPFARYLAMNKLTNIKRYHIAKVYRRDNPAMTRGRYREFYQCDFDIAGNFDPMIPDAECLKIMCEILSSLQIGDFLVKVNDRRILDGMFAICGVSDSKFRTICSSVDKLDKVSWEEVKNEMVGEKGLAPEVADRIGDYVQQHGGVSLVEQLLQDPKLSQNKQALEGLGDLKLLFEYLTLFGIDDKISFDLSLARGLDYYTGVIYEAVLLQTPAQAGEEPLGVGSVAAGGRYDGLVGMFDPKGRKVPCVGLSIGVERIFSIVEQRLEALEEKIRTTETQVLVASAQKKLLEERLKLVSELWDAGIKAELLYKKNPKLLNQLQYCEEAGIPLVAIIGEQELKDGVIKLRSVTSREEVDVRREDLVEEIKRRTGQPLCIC

SSB [3] = target: SSB (UniProt P05455); experiment: AtheNA, Ab 6.25 ug/ml
Jo-1 [4] = target: T1, Jo-1; experiment: AtheNA, Ab 6.25 ug/ml
RNP (ribonucleoprotein) [5] = experiment: AtheNA, Ab 6.25 ug/ml
Centromere B [6] = target: T2, Centromere B (UniProt P07199); experiment: AtheNA, Ab 6.25 ug/ml
T2 sequence (looked up): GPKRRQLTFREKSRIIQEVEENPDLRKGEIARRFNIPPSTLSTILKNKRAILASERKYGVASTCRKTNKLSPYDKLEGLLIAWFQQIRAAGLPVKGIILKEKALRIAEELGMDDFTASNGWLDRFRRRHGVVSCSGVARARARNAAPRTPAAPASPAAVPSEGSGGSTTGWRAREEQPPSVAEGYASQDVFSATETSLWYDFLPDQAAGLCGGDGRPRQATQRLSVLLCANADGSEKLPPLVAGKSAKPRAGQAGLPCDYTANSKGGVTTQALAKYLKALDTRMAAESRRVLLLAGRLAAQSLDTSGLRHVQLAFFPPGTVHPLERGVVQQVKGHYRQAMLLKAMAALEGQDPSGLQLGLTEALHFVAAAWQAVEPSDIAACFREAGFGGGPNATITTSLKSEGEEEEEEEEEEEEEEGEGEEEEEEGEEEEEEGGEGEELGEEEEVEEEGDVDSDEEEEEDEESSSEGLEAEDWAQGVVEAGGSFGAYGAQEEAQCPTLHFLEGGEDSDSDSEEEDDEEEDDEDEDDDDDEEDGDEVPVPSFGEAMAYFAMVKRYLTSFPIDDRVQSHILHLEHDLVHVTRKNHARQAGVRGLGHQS

SSA [7] = experiment: AtheNA, Ab 6.25 ug/ml
Sm (Smith antigen) [8] = experiment: AtheNA, Ab 6.25 ug/ml
Scl-70 [9] = target: Scl-70 (UniProt P11387); experiment: AtheNA, Ab 6.25 ug/ml
Histones [10] = experiment: AtheNA, Ab 6.25 ug/ml
SSB [11] = target: SSB (UniProt P05455); experiment: AtheNA, Ab 50 ug/ml; remark: listed apart in the source
Jo-1 [12] = target: T1, Jo-1; experiment: AtheNA, Ab 50 ug/ml; remark: listed apart in the source
SSB [13] = target: SSB (UniProt P05455); experiment: AtheNA, Ab 12.5 ug/ml
Jo-1 [14] = target: T1, Jo-1; experiment: AtheNA, Ab 12.5 ug/ml
RNP (ribonucleoprotein) [15] = experiment: AtheNA, Ab 12.5 ug/ml
Centromere B [16] = target: T2, Centromere B; experiment: AtheNA, Ab 12.5 ug/ml
SSA [17] = experiment: AtheNA, Ab 12.5 ug/ml
Sm (Smith antigen) [18] = experiment: AtheNA, Ab 12.5 ug/ml
Scl-70 [19] = target: Scl-70 (UniProt P11387); experiment: AtheNA, Ab 12.5 ug/ml
Histones [20] = experiment: AtheNA, Ab 12.5 ug/ml
SSB [21] = target: SSB (UniProt P05455); experiment: AtheNA, Ab 25 ug/ml
Jo-1 [22] = target: T1, Jo-1; experiment: AtheNA, Ab 25 ug/ml
RNP (ribonucleoprotein) [23] = experiment: AtheNA, Ab 25 ug/ml
Centromere B [24] = target: T2, Centromere B; experiment: AtheNA, Ab 25 ug/ml
SSA [25] = experiment: AtheNA, Ab 25 ug/ml
Sm (Smith antigen) [26] = experiment: AtheNA, Ab 25 ug/ml
Scl-70 [27] = target: Scl-70 (UniProt P11387); experiment: AtheNA, Ab 25 ug/ml
Histones [28] = experiment: AtheNA, Ab 25 ug/ml
SSB [29] = target: SSB (UniProt P05455); experiment: AtheNA, Ab 25 ug/ml; remark: listed apart in the source
Jo-1 [30] = target: T1, Jo-1; experiment: AtheNA, Ab 25 ug/ml; remark: listed apart in the source
RNP (ribonucleoprotein) [31] = experiment: AtheNA, Ab 25 ug/ml; remark: listed apart in the source
Centromere B [32] = target: T2, Centromere B; experiment: AtheNA, Ab 25 ug/ml; remark: listed apart in the source
SSA [33] = experiment: AtheNA, Ab 25 ug/ml; remark: listed apart in the source
Sm (Smith antigen) [34] = experiment: AtheNA, Ab 25 ug/ml; remark: listed apart in the source
Scl-70 [35] = target: Scl-70 (UniProt P11387); experiment: AtheNA, Ab 25 ug/ml; remark: listed apart in the source
Histones [36] = experiment: AtheNA, Ab 25 ug/ml; remark: listed apart in the source
RNP (ribonucleoprotein) [37] = experiment: AtheNA, Ab 50 ug/ml
Centromere B [38] = target: T2, Centromere B; experiment: AtheNA, Ab 50 ug/ml
SSA [39] = experiment: AtheNA, Ab 50 ug/ml
Sm (Smith antigen) [40] = experiment: AtheNA, Ab 50 ug/ml
Scl-70 [41] = target: Scl-70 (UniProt P11387); experiment: AtheNA, Ab 50 ug/ml
Histones [42] = experiment: AtheNA, Ab 50 ug/ml

Sequence of Scl-70 (P11387 2-765 limits assumed): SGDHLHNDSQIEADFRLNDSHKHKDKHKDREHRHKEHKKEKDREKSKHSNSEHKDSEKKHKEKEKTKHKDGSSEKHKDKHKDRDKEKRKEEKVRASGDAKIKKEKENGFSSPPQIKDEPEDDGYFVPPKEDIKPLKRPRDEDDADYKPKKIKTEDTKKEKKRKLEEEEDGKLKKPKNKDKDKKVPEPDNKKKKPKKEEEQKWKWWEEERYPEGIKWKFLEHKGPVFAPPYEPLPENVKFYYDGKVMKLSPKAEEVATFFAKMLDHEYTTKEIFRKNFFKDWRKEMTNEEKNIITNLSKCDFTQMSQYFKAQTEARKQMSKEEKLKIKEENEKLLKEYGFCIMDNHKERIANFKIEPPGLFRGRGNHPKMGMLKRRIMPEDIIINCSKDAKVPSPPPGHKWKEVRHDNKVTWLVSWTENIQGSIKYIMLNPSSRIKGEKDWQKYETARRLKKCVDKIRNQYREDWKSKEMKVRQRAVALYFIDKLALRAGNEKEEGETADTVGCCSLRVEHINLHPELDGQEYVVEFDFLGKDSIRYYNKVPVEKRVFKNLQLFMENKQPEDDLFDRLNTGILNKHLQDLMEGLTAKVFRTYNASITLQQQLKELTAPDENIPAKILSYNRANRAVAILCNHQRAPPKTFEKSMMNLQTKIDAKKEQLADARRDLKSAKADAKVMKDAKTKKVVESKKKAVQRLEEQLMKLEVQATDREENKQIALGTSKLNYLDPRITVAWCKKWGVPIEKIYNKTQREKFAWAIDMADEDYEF
Sequence of SSB (P05455 whole entry): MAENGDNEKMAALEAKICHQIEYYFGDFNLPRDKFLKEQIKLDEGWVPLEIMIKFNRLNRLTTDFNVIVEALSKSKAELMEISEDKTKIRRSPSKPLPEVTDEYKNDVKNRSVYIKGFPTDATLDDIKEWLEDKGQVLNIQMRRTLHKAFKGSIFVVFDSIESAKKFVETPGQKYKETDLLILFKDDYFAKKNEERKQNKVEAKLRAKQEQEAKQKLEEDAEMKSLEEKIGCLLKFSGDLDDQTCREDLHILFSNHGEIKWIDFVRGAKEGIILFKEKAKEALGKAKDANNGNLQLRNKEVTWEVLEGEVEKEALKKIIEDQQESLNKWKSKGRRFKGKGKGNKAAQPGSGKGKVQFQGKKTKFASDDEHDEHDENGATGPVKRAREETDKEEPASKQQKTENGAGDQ

Athena reading (relative luminescence units) (SSB [1]): 207 | Athena reading (relative luminescence units) (Jo-1 [2]): 227 | Athena reading (relative luminescence units) (SSB [3]): 178 | Athena reading (relative luminescence units) (Jo-1 [4]): 113 | Athena reading (relative luminescence units) (RNP (ribonucleoprotein) [5]): 3 | Athena reading (relative luminescence units) (Centromere B [6]): 2 | Athena reading (relative luminescence units) (SSA [7]): 17 | Athena reading (relative luminescence units) (Sm (Smith antigen) [8]): 3 | Athena reading (relative luminescence units) (Scl-70 [9]): 1 | Athena reading (relative luminescence units) (Histones [10]): 6 | Athena reading (relative luminescence units) (SSB [11]): 263 | Athena reading (relative luminescence units) (Jo-1 [12]): 190 | Athena reading (relative luminescence units) (SSB [13]): 199 | Athena reading (relative luminescence units) (Jo-1 [14]): 131 | Athena reading (relative luminescence units) (RNP (ribonucleoprotein) [15]): 3 | Athena reading (relative luminescence units) (Centromere B [16]): 1 | Athena reading (relative luminescence units) (SSA [17]): 21 | Athena reading (relative luminescence units) (Sm (Smith antigen) [18]): 3 | Athena reading (relative luminescence units) (Scl-70 [19]): 0 | Athena reading (relative luminescence units) (Histones [20]): 7 | Athena reading (relative luminescence units) (SSB [21]): 189 | Athena reading (relative luminescence units) (Jo-1 [22]): 206 | Athena reading (relative luminescence units) (RNP (ribonucleoprotein) [23]): 20 | Athena reading (relative luminescence units) (Centromere B [24]): 9 | Athena reading (relative luminescence units) (SSA [25]): 81 | Athena reading (relative luminescence units) (Sm (Smith antigen) [26]): 46 | Athena reading (relative luminescence units) (Scl-70 [27]): 4 | Athena reading (relative luminescence units) (Histones [28]): 24 | Athena reading (relative luminescence units) (SSB [29]): 227 | Athena reading (relative luminescence units) (Jo-1 [30]): 160 | Athena reading (relative luminescence units) (RNP (ribonucleoprotein) [31]): 3 | Athena reading (relative luminescence units) (Centromere B [32]): 3 | Athena reading (relative luminescence units) (SSA [33]): 33 | Athena reading (relative luminescence units) (Sm (Smith antigen) [34]): 2 | Athena reading (relative luminescence units) (Scl-70 [35]): 1 | Athena reading (relative luminescence units) (Histones [36]): 10
Substance: 4E10 IgG1 (antibody)

Athena reading (relative luminescence units) (SSB [3]): 5 | Athena reading (relative luminescence units) (Jo-1 [4]): 3 | Athena reading (relative luminescence units) (RNP (ribonucleoprotein) [5]): 2 | Athena reading (relative luminescence units) (Centromere B [6]): 2 | Athena reading (relative luminescence units) (SSA [7]): 10 | Athena reading (relative luminescence units) (Sm (Smith antigen) [8]): 5 | Athena reading (relative luminescence units) (Scl-70 [9]): 3 | Athena reading (relative luminescence units) (Histones [10]): 2 | Athena reading (relative luminescence units) (SSB [13]): 4 | Athena reading (relative luminescence units) (Jo-1 [14]): 5 | Athena reading (relative luminescence units) (RNP (ribonucleoprotein) [15]): 3 | Athena reading (relative luminescence units) (Centromere B [16]): 3 | Athena reading (relative luminescence units) (SSA [17]): 9 | Athena reading (relative luminescence units) (Sm (Smith antigen) [18]): 6 | Athena reading (relative luminescence units) (Scl-70 [19]): 3 | Athena reading (relative luminescence units) (Histones [20]): 4 | Athena reading (relative luminescence units) (SSB [21]): 3 | Athena reading (relative luminescence units) (Jo-1 [22]): 5 | Athena reading (relative luminescence units) (RNP (ribonucleoprotein) [23]): 4 | Athena reading (relative luminescence units) (Centromere B [24]): 3 | Athena reading (relative luminescence units) (SSA [25]): 9 | Athena reading (relative luminescence units) (Sm (Smith antigen) [26]): 6 | Athena reading (relative luminescence units) (Scl-70 [27]): 3 | Athena reading (relative luminescence units) (Histones [28]): 3
Substance: CH235UA/293i (antibody)

Athena reading (SSB [3]): 1 | Athena reading (Jo-1 [4]): 5 | Athena reading (RNP (ribonucleoprotein) [5]): 2 | Athena reading (Centromere B [6]): 2 | Athena reading (SSA [7]): 5 | Athena reading (Sm (Smith antigen) [8]): 3 | Athena reading (Scl-70 [9]): 2 | Athena reading (Histones [10]): 2 | Athena reading (SSB [11]): 6 | Athena reading (Jo-1 [12]): 5 | Athena reading (RNP (ribonucleoprotein) [37]): 2 | Athena reading (Centromere B [38]): 10 | Athena reading (SSA [39]): 5 | Athena reading (Sm (Smith antigen) [40]): 5 | Athena reading (Scl-70 [41]): 4 | Athena reading (Histones [42]): 9 | Athena reading (SSB [13]): 6 | Athena reading (Jo-1 [14]): 6 | Athena reading (RNP (ribonucleoprotein) [15]): 3 | Athena reading (Centromere B [16]): 3 | Athena reading (SSA [17]): 3 | Athena reading (Sm (Smith antigen) [18]): 5 | Athena reading (Scl-70 [19]): 2 | Athena reading (Histones [20]): 4 | Athena reading (SSB [29]): 6 | Athena reading (Jo-1 [30]): 3 | Athena reading (RNP (ribonucleoprotein) [31]): 2 | Athena reading (Centromere B [32]): 5 | Athena reading (SSA [33]): 3 | Athena reading (Sm (Smith antigen) [34]): 5 | Athena reading (Scl-70 [35]): 1 | Athena reading (Histones [36]): 4
Substance: DH270IA1 (antibody)

Athena reading (relative luminescence units) (SSB [3]): 5 | Athena reading (relative luminescence units) (Jo-1 [4]): 1 | Athena reading (relative luminescence units) (RNP (ribonucleoprotein) [5]): 3 | Athena reading (relative luminescence units) (Centromere B [6]): 2 | Athena reading (relative luminescence units) (SSA [7]): 2 | Athena reading (relative luminescence units) (Sm (Smith antigen) [8]): 2 | Athena reading (relative luminescence units) (Scl-70 [9]): 2 | Athena reading (relative luminescence units) (Histones [10]): 3 | Athena reading (relative luminescence units) (SSB [13]): 5 | Athena reading (relative luminescence units) (Jo-1 [14]): 6 | Athena reading (relative luminescence units) (RNP (ribonucleoprotein) [15]): 3 | Athena reading (relative luminescence units) (Centromere B [16]): 2 | Athena reading (relative luminescence units) (SSA [17]): 2 | Athena reading (relative luminescence units) (Sm (Smith antigen) [18]): 7 | Athena reading (relative luminescence units) (Scl-70 [19]): 3 | Athena reading (relative luminescence units) (Histones [20]): 3 | Athena reading (relative luminescence units) (SSB [21]): 4 | Athena reading (relative luminescence units) (Jo-1 [22]): 4 | Athena reading (relative luminescence units) (RNP (ribonucleoprotein) [23]): 0 | Athena reading (relative luminescence units) (Centromere B [24]): 2 | Athena reading (relative luminescence units) (SSA [25]): 11 | Athena reading (relative luminescence units) (Sm (Smith antigen) [26]): 4 | Athena reading (relative luminescence units) (Histones [28]): 2 | Athena reading (relative luminescence units) (SSB [29]): 7 | Athena reading (relative luminescence units) (Jo-1 [30]): 2 | Athena reading (relative luminescence units) (RNP (ribonucleoprotein) [31]): 4 | Athena reading (relative luminescence units) (Centromere B [32]): 4 | Athena reading (relative luminescence units) (SSA [33]): 3 | Athena reading (relative luminescence units) (Sm (Smith antigen) [34]): 3 | Athena reading (relative luminescence units) (Scl-70 [35]): 2 | Athena reading (relative luminescence units) (Histones [36]): 5
Substance: synagis (antibody)
